Assay results reported in patent US12325863B2, “MDA-7/IL-24 secretory variants and methods of use” (Virginia Commonwealth University, priority 2018, dated 2025).

B1: MDA-7/IL-24: Melanoma differentiation associated gene-7/Interleukin-24, secreted protein of the IL-10 family (protein)
chain: QEFHFGPCQVKGVVPQKLWEAFWAVKDTMQAQDNITSARLLQQEVLQNVSDAESCYLVHTLLEFYLKTVFKNYHNRTVEVRTLKSFSTLANNFVLIVSQLQPSQENEMFSIRDSAHRRFLLFRRAFKQLDVEAALTKALGEVDILLTWMQKFYKL

Key:
[1] = Sabutoclax and BI-97D6 in combination with MDA-7/IL-24; settings: combined with MDA-7/IL-24; earlier observation referred to
Procedure: To test a multi-target approach for treatment of prostate cancer bone metastases, experiments were conducted to target Mcl-1 inhibition and investigate the effects on NG-mda-7/IL-24 efficacy. […] In addition to these inhibitors, three commercially available targeted inhibitors were evaluated to determine potential synergistic effects with MDA-7/IL-24. […] Next, the therapeutic effect of MDA-7/IL-24 protein in combination with BI-97D6 was tested, in male athymic nude mice injected by the intracardiac route with human prostate cancer PC3-ML cells, resulting in bone metastases.

[2] = system: CD11b+Gr-1+ MDSCs; settings: single administration 5 mg/kg or 20 mg/kg i.p., 24 hours, spleen; FIG. 33
Procedure: 24 hrs. later, splenic CD11b+Gr-1+ MDSCs were assessed by FACS.
Twenty-four (24) hours later, splenic CD11b^+Gr-1^+ MDSCs were assessed by FACS.

[3] = system: human prostate cancer PC3-ML cells; test: PC3-ML intracardiac bone metastasis model in athymic nude mice; format: in vivo; settings: single agent, versus control group
Procedure: To test a multi-target approach for treatment of prostate cancer bone metastases, experiments were conducted to target Mcl-1 inhibition and investigate the effects on NG-mda-7/IL-24 efficacy. Using NMR (nuclear magnetic resonance) and computational biology, two Mcl-1 inhibitors were identified (Sabutoclax and BI-97D6) and their activity was validated in immune competent mice in combination with MDA-7/IL-24. In addition to these inhibitors, three commercially available targeted inhibitors were evaluated to determine potential synergistic effects with MDA-7/IL-24. The three inhibitors were UMI-77 (showing selectivity to Mcl-1 over other members of the Bcl-2 family), Marinopyrrole A (selective inhibitor of Mcl-1), and A-1210477. […] Mcl-1 expression was elevated by 1.7-fold in RM1-BM (RM1-BM cells selected for enhanced metastasis to bone) as compared to RM1 cells, indicating functional relevance of Mcl-1 in this metastatic process. […] This further supported the cancer-specificity of specific Mcl-1 inhibitors. Next, the therapeutic effect of MDA-7/IL-24 protein in combination with BI-97D6 was tested, in male athymic nude mice injected by the intracardiac route with human prostate cancer PC3-ML cells, resulting in bone metastases.

[4] = system: prostate cancer bone metastases (RMI-Luc cells); test: RM1-Luc bone metastases, OT-I T cells with or without MDA-7/IL-24 protein; format: in vivo, C57BL/6 mice; settings: OT-I in combination with protein i.v. 5 mg/kg body weight, 3 times; FIG. 29
Procedure: (§1) C57BL/6 mice established with experimental bone metastases via intratibial injection of ovalbumin-positive CaP RM1-Luc cells expressing luciferase were treated with OVA-specific T cells (OT-I) alone or in combination with recombinant MDA-7/IL-24 protein i.v. (5 mg/kg body weight, 3 times). Development of bone lesions was monitored by BLI. Luciferase intensity was quantified and is presented graphically.
as §1, with “intra-tibial” for “intratibial”, “prostate cancer RMI-Luc” for “CaP RM1-Luc”, “intravenously” for “i.v.”, “bioluminescent imaging (BLI) (FIG. 29 left panel).” for “BLI.”, “graphically (FIG. 29 graph).” for “graphically.”

[5] = system: CD8+ T cells; test: 3H-thymidine incorporation in stimulated CD8+ T cells; format: cell-based; settings: anti-CD3/CD28 stimulation, 20 ng/ml, p<0.05; FIG. 31A
Procedure: (§2) FIGS. 31A-31B show example results illustrating that MDA-7/IL-24 promotes T cell expansion and activation. FIG. 31A: CD8+ T cells were stimulated with anti-CD3/CD28 antibodies in the presence or absence of purified MDA-7/IL-24 protein (20 ng/ml). Cell proliferation was measured using ^3H-thymidine (TdR) incorporation assays. p<0.05. FIG. 31B: C57BL/6 mice were injected i.v. with MDA-7/IL-24 protein (10 μg) or PBS. 48 h later, lymph node cells were assessed for IFN-γ-producing CD8+ T cells by intracellular staining.
(§3) In subsequent experiments, CD8^+ T cells were stimulated with anti-CD3/CD28 antibodies in the presence or absence of purified MDA-7/IL-24 protein (20 ng/ml). Cell proliferation was measured using ^3H-thymidine (TdR) incorporation assays. p<0.05. […] C57BL/6 mice were injected intravenously with MDA-7/IL-24 protein (10 μg) or PBS; 48 hours later, lymph node cells were assessed for IFN-γ-producing CD8^+ T cells by intracellular staining.

[6] = system: IFN-γ-producing CD8+ T cells; test: IFN-γ-producing CD8+ T cells in lymph nodes after i.v. protein; format: in vivo, C57BL/6 mice; settings: 10 μg i.v., 48 hours, lymph node cells; FIG. 31B
Procedure: as §2, §3

[7] = system: breast cancer cells; test: ER stress response and surface calreticulin in breast cancer cells; format: cell-based, mouse
Excerpt: FIGS. 41A-41C show example images illustrating that MDA-7/IL-24 therapy enhances immunogenicity of mouse mammary tumors. FIG. 41A: immunogenic BCa cell death induced by MDA-7/IL-24 therapy. BALB/c mice were immunized with irradiated, Ad.mda-7 (1,2) or Ad.null (3,4) infected 4T1 cells (MOI=1), challenged with live 4T1 cells. The images were taken two weeks' post-tumor challenge. […] FIG. 41C: MDA-7/IL-24 therapy triggers the surface presence of CRT, assessed by immunofluorescence staining (left) and immunoblotting analysis of plasma membrane or cytosolic fractions (right).
Immunogenic breast cancer cell death was induced by MDA-7/IL-24 therapy. BALB/c mice were immunized with irradiated, Ad.mda-7 (mouse 1 and 2) or Ad.null (mouse 3 and 4) infected 4T1 cells (MOI=1), and then challenged with live 4T1 cells. The images were taken two weeks' post-tumor challenge.

Molecule	antitumor synergy [1]	frequency of CD11b+Gr-1+ MDSCs [2]	bone metastases [3]	therapeutic potency of ATT on bone metastases (BLI) [4]	T cell proliferation (3H-thymidine incorporation) [5]	frequency of IFN-γ-expressing CD8+ T cells [6]	surface calreticulin (immunofluorescence, immunoblotting) ([7]; FIG. 41C)	ER stress response ([7]; GRP78/BiP, GRP170, FIG. 41B)
Cc1cc2c(C(=O)NC[C@H](C)c3ccccc3)c(O)c(O)cc2c(O)c1-c1c(C)cc2c(C(=O)NC[C@H](C)c3ccccc3)c(O)c(O)cc2c1O [BI-97C1, Sabutoclax]	antitumor synergy	substantially reduced the frequency of CD11b^+Gr-1^+ MDSCs	–	–	–	–	–	–
B1	–	–	statistically significant inhibition of bone metastases	significantly enhanced the therapeutic potency of ATT	significantly enhanced the proliferation of T cells	increased the frequency of IFN-γ-expressing CD8^+ T cells	triggers the surface presence of calreticulin (CRT)	upregulation of ER-resident chaperones
